Assay results taken from PMC8395977.
Each block holds one substance with its values, some of them ahead of it.

How the values were obtained:
[1] = target: iota carbonic anhydrase from Thalassiosira pseudonana (tpι-CA), full-length four-domain recombinant protein (Thalassiosira pseudonana); assay: SEC-SAXS; SWING beamline (SOLEIL), Agilent Bio SEC-5 500 Å column, 15 °C; molecular mass from SAXS-MoW
[2] = target: iota carbonic anhydrase from Thalassiosira pseudonana (tpι-CA), full-length four-domain recombinant protein (Thalassiosira pseudonana); assay: native MS; ESI-MS under non-denaturing conditions, 500 mM ammonium acetate pH 8, 8 µM protein, Q-ToF (Synapt G1), source 20 °C
[3] = target: iota carbonic anhydrase from Thalassiosira pseudonana (tpι-CA), full-length four-domain recombinant protein (Thalassiosira pseudonana); assay: cross-linking; 0.01% glutaraldehyde, 20 mM Na2HPO4 pH 8.0, 10 to 15 min at room temperature, then SDS-PAGE and Western blot
[4] = target: iota carbonic anhydrase from Thalassiosira pseudonana (tpι-CA), full-length four-domain recombinant protein (Thalassiosira pseudonana); assay: SEC; Superdex Increase S200 10 x 300 at 4 °C, samples loaded at 50 µM to 200 µM; Benzonase treatment where mentioned
[5] = target: tpι-CA domain variant ∆1 (composed of domain 1 only) (Thalassiosira pseudonana); assay: DOSY-NMR; 30 to 80 µM protein, 27 mM Tris, 45 mM NaCl, 10% D2O, pH 8, 298 K, 600 MHz; experimental Dt and Rh compared with HYDROPRO values of the models
[6] = target: tpι-CA domain variant ∆1-2 (composed of domains 1 and 2) (Thalassiosira pseudonana); assay: as above

- stoichiometry N [1]: 4
- stoichiometry N [2]: 4
- stoichiometry N [3]: 4
- stoichiometry N [4]: 4
Substance: iota carbonic anhydrase from Thalassiosira pseudonana (tpι-CA), full-length four-domain recombinant protein (enzyme)

- stoichiometry N [5]: 2
Substance: tpι-CA domain variant ∆1 (composed of domain 1 only) (domain or fragment)

- stoichiometry N [6]: 4
Substance: tpι-CA domain variant ∆1-2 (composed of domains 1 and 2) (domain or fragment)
